Source: patent US20250000946A1

Molecular target: Human IL-2Rα/β/γ complex (high affinity IL-2 receptor) (human) (UniProt P01589)
Assay: cell-based or functional assay

Chain of Human IL-2Rα/β/γ complex (high affinity IL-2 receptor) (human) (P01589 22-272, chain 1 of 3): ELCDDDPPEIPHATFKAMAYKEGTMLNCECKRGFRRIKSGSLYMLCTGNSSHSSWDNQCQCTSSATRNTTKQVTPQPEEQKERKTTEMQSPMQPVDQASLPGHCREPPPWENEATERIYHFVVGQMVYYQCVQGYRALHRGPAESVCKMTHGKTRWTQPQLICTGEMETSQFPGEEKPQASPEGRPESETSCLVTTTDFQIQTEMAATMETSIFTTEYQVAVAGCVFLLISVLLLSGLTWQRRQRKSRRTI
Chain of Human IL-2Rα/β/γ complex (high affinity IL-2 receptor) (human) (P14784 27-551, chain 2 of 3, further chain): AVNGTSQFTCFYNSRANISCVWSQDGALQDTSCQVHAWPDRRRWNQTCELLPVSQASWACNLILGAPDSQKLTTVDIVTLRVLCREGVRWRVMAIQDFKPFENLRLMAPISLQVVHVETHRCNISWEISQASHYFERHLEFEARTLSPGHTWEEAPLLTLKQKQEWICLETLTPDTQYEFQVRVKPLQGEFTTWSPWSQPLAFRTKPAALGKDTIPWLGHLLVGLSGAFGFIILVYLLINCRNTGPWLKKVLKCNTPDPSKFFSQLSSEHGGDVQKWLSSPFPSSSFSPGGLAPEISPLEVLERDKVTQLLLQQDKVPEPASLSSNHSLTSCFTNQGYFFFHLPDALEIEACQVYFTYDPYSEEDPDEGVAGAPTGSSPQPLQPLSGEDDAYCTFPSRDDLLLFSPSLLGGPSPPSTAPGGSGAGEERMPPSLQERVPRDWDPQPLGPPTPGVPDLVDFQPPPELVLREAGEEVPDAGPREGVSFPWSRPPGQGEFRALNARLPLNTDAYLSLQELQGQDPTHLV
Chain of Human IL-2Rα/β/γ complex (high affinity IL-2 receptor) (human) (P31785 23-369, chain 3 of 3, further chain): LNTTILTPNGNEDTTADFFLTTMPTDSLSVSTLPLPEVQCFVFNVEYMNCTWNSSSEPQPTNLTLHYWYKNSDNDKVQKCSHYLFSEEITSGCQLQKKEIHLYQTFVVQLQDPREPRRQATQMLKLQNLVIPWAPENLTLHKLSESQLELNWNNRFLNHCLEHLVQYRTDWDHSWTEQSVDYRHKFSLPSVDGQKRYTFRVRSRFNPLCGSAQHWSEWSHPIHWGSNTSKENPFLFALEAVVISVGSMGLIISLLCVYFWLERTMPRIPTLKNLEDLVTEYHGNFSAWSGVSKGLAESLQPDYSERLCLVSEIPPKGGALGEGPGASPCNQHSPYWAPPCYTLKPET

Human Treg Potency EC50 (STAT5 phosphorylation) | Human Treg Potency reduction | Binder
7.78 nM | 5560 fold | W3XX115-T3U0.E44-1.uIgG4V322 (Fc fusion) APTSSSTKKTQLQLEHLLLDLQMILNGINNYKNPKLTRMLTAKFAMPKKATELKHLQCLEEELKPLEEVLNGAQSKNFHLRPRDLISNINVIVLELKGSETTFMCEYADETATIVEFLNRWITFCQSIISTLTESKYGPPCPPCPAPEAAGGPSVFLFPPKPKDTLMISRTPEVTCVVVDVSQEDPEVQFNWYVDGVEVHNAKTKPREEQFNSTYRVVSVLTVLHQDWLNGKEYKCKVSNKGLPSSIEKTISKAKGQPREPQVYTLPPCQEEMTKNQVSLWCLVKGFYPSDIAVEWESNGQPENNYKTTPPVLDSDGSFFLYSRLTVDKSRWQEGNVFSCSVMHEALHNHYTQKSLSLSLG heavy: EIQLQQSGPELVKPGASVKVSCKASGYSFTDYNMYWVKQSHGESLEWIGYIDPYNGGTRYNQKFKGKATLTVDKSSSTAFMHLNSLTSEDSAVYYCARNGHWDGAWFAYWGQGTLVTVSAASTKGPSVFPLAPCSRSTSESTAALGCLVKDYFPEPVTVSWNSGALTSGVHTFPAVLQSSGLYSLSSVVTVPSSSLGTKTYTCNVDHKPSNTKVDKRVESKYGPPCPPCPAPEAAGGPSVFLFPPKPKDTLMISRTPEVTCVVVDVSQEDPEVQFNWYVDGVEVHNAKTKPREEQFNSTYRVVSVLTVLHQDWLNGKEYKCKVSNKGLPSSIEKTISKAKGQPREPQVCTLPPSQEEMTKNQVSLSCAVKGFYPSDIAVEWESNGQPENNYKTTPPVLDSDGSFFLVSRLTVDKSRWQEGNVFSCSVMHEALHNHYTQKSLSLSLG light: DIQMNQSPSSLSASLGDTITITCHASQNINVWLSWYQQKPGNIPKLLIYKASNLHTGVPSRFSGSRSGTGFTLTISSLQPEDIATYYCHQGQSYPFTFGSGTKLEIKRTVAAPSVFIFPPSDEQLKSGTASVVCLLNNFYPREAKVQWKVDNALQSGNSQESVTEQDSKDSTYSLSSTLTLSKADYEKHKVYACEVTHQGLSSPVTKSFNRGEC
48.8 nM | 34900 fold | W3XX115-T2U0.E44-31.uIgG4V322 (Fc fusion) APTSSSTKKTQLQLEHLLLDLQMILNGINNYKNPKLTRMLTVKFYMPKKATELKHLQCLEEELKPLEEVLNLAQSKNFHLRPRDLISNINVIVLELKGSETTFMCEYADETATIVEFLNRWITFCQSILESKYGPPCPPCPAPEAAGGPSVFLFPPKPKDTLMISRTPEVTCVVVDVSQEDPEVQFNWYVDGVEVHNAKTKPREEQFNSTYRVVSVLTVLHQDWLNGKEYKCKVSNKGLPSSIEKTISKAKGQPREPQVYTLPPCQEEMTKNQVSLWCLVKGFYPSDIAVEWESNGQPENNYKTTPPVLDSDGSFFLYSRLTVDKSRWQEGNVFSCSVMHEALHNHYTQKSLSLSLG heavy: EIQLQQSGPELVKPGASVKVSCKASGYSFTDYNMYWVKQSHGESLEWIGYIDPYNGGTRYNQKFKGKATLTVDKSSSTAFMHLNSLTSEDSAVYYCARNGHWDGAWFAYWGQGTLVTVSAASTKGPSVFPLAPCSRSTSESTAALGCLVKDYFPEPVTVSWNSGALTSGVHTFPAVLQSSGLYSLSSVVTVPSSSLGTKTYTCNVDHKPSNTKVDKRVESKYGPPCPPCPAPEAAGGPSVFLFPPKPKDTLMISRTPEVTCVVVDVSQEDPEVQFNWYVDGVEVHNAKTKPREEQFNSTYRVVSVLTVLHQDWLNGKEYKCKVSNKGLPSSIEKTISKAKGQPREPQVCTLPPSQEEMTKNQVSLSCAVKGFYPSDIAVEWESNGQPENNYKTTPPVLDSDGSFFLVSRLTVDKSRWQEGNVFSCSVMHEALHNHYTQKSLSLSLG light: DIQMNQSPSSLSASLGDTITITCHASQNINVWLSWYQQKPGNIPKLLIYKASNLHTGVPSRFSGSRSGTGFTLTISSLQPEDIATYYCHQGQSYPFTFGSGTKLEIKRTVAAPSVFIFPPSDEQLKSGTASVVCLLNNFYPREAKVQWKVDNALQSGNSQESVTEQDSKDSTYSLSSTLTLSKADYEKHKVYACEVTHQGLSSPVTKSFNRGEC
40.9 nM | 29200 fold | W3XX115-T2U0.E44-32.uIgG4V322 (Fc fusion) APTSSSTKKTQLQLEHLLLDLQMILNGINNYKNPKLTRMLTIKFYMPKKATELKHLQCLEEELKPLEEVLNLAQSKNFHLRPRDLISNINVIVLELKGSETTFMCEYADETATIVEFLNRWITFCQSILESKYGPPCPPCPAPEAAGGPSVFLFPPKPKDTLMISRTPEVTCVVVDVSQEDPEVQFNWYVDGVEVHNAKTKPREEQFNSTYRVVSVLTVLHQDWLNGKEYKCKVSNKGLPSSIEKTISKAKGQPREPQVYTLPPCQEEMTKNQVSLWCLVKGFYPSDIAVEWESNGQPENNYKTTPPVLDSDGSFFLYSRLTVDKSRWQEGNVFSCSVMHEALHNHYTQKSLSLSLG heavy: EIQLQQSGPELVKPGASVKVSCKASGYSFTDYNMYWVKQSHGESLEWIGYIDPYNGGTRYNQKFKGKATLTVDKSSSTAFMHLNSLTSEDSAVYYCARNGHWDGAWFAYWGQGTLVTVSAASTKGPSVFPLAPCSRSTSESTAALGCLVKDYFPEPVTVSWNSGALTSGVHTFPAVLQSSGLYSLSSVVTVPSSSLGTKTYTCNVDHKPSNTKVDKRVESKYGPPCPPCPAPEAAGGPSVFLFPPKPKDTLMISRTPEVTCVVVDVSQEDPEVQFNWYVDGVEVHNAKTKPREEQFNSTYRVVSVLTVLHQDWLNGKEYKCKVSNKGLPSSIEKTISKAKGQPREPQVCTLPPSQEEMTKNQVSLSCAVKGFYPSDIAVEWESNGQPENNYKTTPPVLDSDGSFFLVSRLTVDKSRWQEGNVFSCSVMHEALHNHYTQKSLSLSLG light: DIQMNQSPSSLSASLGDTITITCHASQNINVWLSWYQQKPGNIPKLLIYKASNLHTGVPSRFSGSRSGTGFTLTISSLQPEDIATYYCHQGQSYPFTFGSGTKLEIKRTVAAPSVFIFPPSDEQLKSGTASVVCLLNNFYPREAKVQWKVDNALQSGNSQESVTEQDSKDSTYSLSSTLTLSKADYEKHKVYACEVTHQGLSSPVTKSFNRGEC
